{
  "source": "patent US20140294898A1",
  "about": "(published 2014)",
  "key": {"human PD-L1 on cells": {"target": "human PD-L1 on cells (human, UniProt Q9NZQ7 19-290)", "sequence (Q9NZQ7 19-290)": "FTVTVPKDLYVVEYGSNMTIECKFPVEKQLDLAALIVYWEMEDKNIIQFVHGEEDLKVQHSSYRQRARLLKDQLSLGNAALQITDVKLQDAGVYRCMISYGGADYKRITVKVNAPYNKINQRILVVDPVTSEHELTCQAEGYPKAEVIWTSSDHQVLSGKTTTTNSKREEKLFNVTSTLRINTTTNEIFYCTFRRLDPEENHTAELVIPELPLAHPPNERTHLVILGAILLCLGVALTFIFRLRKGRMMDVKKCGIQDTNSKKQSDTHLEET", "test": "cell binding assay, blocking of PD-1-Ig (PE) to LK35.2-hPD-L1 cells"}, "[1]": {"target": "T1, hPDL1(19-239)-TVMV-His (recombinant human PD-L1-TVMV-His) (UniProt Q9NZQ7 19-239)", "T1 sequence (Q9NZQ7 other isoform, or with tags, fused parts or gaps)": "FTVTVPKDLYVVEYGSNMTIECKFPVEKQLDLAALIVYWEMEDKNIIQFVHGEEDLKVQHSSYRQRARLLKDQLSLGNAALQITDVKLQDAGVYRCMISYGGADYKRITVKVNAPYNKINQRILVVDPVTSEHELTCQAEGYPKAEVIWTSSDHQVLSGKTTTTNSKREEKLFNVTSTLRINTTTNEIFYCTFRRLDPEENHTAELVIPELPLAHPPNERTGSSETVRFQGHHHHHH", "test": "HTRF competition with biotinylated Compound No. 71"}, "[2]": {"target": "T1, hPDL1(19-239)-TVMV-His (recombinant …)", "test": "HTRF PD-1/PD-L1 binding inhibition"}},
  "note": "Positions of bridges follow the written chain, without caps; N, C: chain ends. Non-standard residues stand in square brackets, D forms with d. NMeNle = CCCC[C@H](NC)C(=O)O; NMeA = CN[C@@H](C)C(=O)O",
  "data": [
    {"binder": "FFXGDVFYGWYLCG (HELM PEPTIDE1{[O=C(C[*:3])[*:2]].F.[meF].[CCCC[C@@H](C(=O)[*:2])N(C)[*:1]].[Sar].D.V.[meF].Y.[Sar].W.Y.L.C.G.[am]}$PEPTIDE1,PEPTIDE1,1:R3-14:R3$$$V2.0; SMILES CCCC[C@H]1C(=O)N(C)CC(=O)N[C@@H](CC(=O)O)C(=O)N[C@@H](C(C)C)C(=O)N(C)[C@@H](Cc2ccccc2)C(=O)N[C@@H](Cc2ccc(O)cc2)C(=O)N(C)CC(=O)N[C@@H](Cc2c[nH]c3ccccc23)C(=O)N[C@@H](Cc2ccc(O)cc2)C(=O)N[C@@H](CC(C)C)C(=O)N[C@H](C(=O)NCC(N)=O)CSCC(=O)N[C@@H](Cc2ccccc2)C(=O)N(C)[C@@H](Cc2ccccc2)C(=O)N1C)", "note": "[Compound No. 71]", "values": [
      {"measurement": "IC50", "setting": "human PD-L1 on cells", "value": 1, "unit": "nM"},
      {"measurement": "IC50", "setting": "[1]", "value": 83, "unit": "nM"},
      {"measurement": "IC50", "setting": "[2]", "value": 1, "unit": "nM"}
    ]},
    {"binder": "{CH2CO}-FLIVIRDRVFRCG-NH2 (thioether N-12)", "note": "[Compound No. 99]", "values": [
      {"measurement": "IC50", "setting": "human PD-L1 on cells", "value": 133, "unit": "nM"},
      {"measurement": "IC50", "setting": "[1]", "value": 4310, "unit": "nM"},
      {"measurement": "IC50", "setting": "[2]", "value": 90, "unit": "nM"}
    ]},
    {"binder": "{CH2CO}-F[NMeA]NPHHSWRW[NMeNle][NMeNle]LCG-NH2 (thioether N-14; SMILES CCCC[C@H]1C(=O)N(C)[C@@H](CCCC)C(=O)N[C@@H](CC(C)C)C(=O)N[C@H](C(=O)NCC(N)=O)CSCC(=O)N[C@@H](Cc2ccccc2)C(=O)N(C)[C@@H](C)C(=O)N[C@@H](CC(N)=O)C(=O)N2CCC[C@H]2C(=O)N[C@@H](Cc2c[nH]cn2)C(=O)N[C@@H](Cc2c[nH]cn2)C(=O)N[C@@H](CO)C(=O)N[C@@H](Cc2c[nH]c3ccccc23)C(=O)N[C@@H](CCCNC(=N)N)C(=O)N[C@@H](Cc2c[nH]c3ccccc23)C(=O)N1C)", "note": "[Compound No. 2]", "values": [
      {"measurement": "IC50", "setting": "human PD-L1 on cells", "value": 40, "unit": "nM"},
      {"measurement": "IC50", "setting": "[1]", "value": 584, "unit": "nM"},
      {"measurement": "IC50", "setting": "[2]", "value": 14, "unit": "nM"}
    ]}
  ]
}
